# Results from paper PMC3814384, “YoeB–ribosome structure: a canonical RNase that requires the ribosome for its specific activity” (Nucleic Acids Research, 2013).
# B1: Escherichia coli YoeB (enzyme, UniProt P69348 1-84, looked up)
# chain: MKLIWSEESWDDYLYWQETDKRIVKKINELIKDTRRTPFEGKGKPEPLKHNLSGFWSRRITEEHRLVYAVTDDSLLIAACRYHY
# notes: In the crystal two copies (monomers A and B) sit on the ribosomal A site as a homodimer; also called YeoB; monomer A; source: E. coli BL21(DE3), co-expressed with His-tagged YefM
# Target: the molecule itself
# Assay: crystal structure; T. thermophilus 70S ribosome 4.4 uM with mRNA MOO4b (2'-O-methylated A-site codon) and tRNAfMet, YoeB added to 44 uM, buffer G (5 mM HEPES pH 7.5, 50 mM KCl, 10 mM NH4Cl, 10 mM Mg-acetate, 6 mM 2-mercaptoethanol); pre-cleavage state, 3.35 A
protein,measurement,value
B1,stoichiometry N,2
